These results are taken from patent US20100196934A1.

Where “and” joins values, the source holds several entries; their conditions need not be identical. Equal values may be shown once. Read-outs that look alike come from different tables or passages of the source.

The target in assay [1] is Mouse BH PrP^Sc (mouse). In words: direct ELISA, coated denatured mouse BH PrP^Sc 0.1 mg BH/assay.
Assay [2] has as its target Deer recombinant PrP (deer). The assay is described as follows: direct ELISA, coated denatured rPrP 0.1 ng/assay. On the technique in general: ELISA stands for enzyme-linked immunosorbent assay.
For assay [3], the target named is Sheep recombinant PrP (sheep). The assay is described as follows: direct ELISA, coated denatured rPrP 0.1 ng/assay.
In assay [4] the target is Human recombinant PrP (human). The assay is described as follows: direct ELISA, coated denatured rPrP 0.1 ng/assay.
The target of assay [5] is Mouse recombinant PrP (mouse). The assay is described as follows: direct ELISA, coated denatured rPrP 0.1 ng/assay.
In assay [6] the target is Bovine recombinant PrP (bovine). The assay is described as follows: direct ELISA, coated denatured rPrP 0.1 ng/assay.
The target in assay [7] is Mouse BH PrP^Sc (mouse). In words: direct ELISA, coated denatured mouse BH PrP^Sc 1 mg BH/assay.
In assay [8] the target is Deer recombinant PrP (deer). The assay is described as follows: direct ELISA, coated denatured rPrP 1 ng/assay.
In assay [9] the target is Sheep recombinant PrP (sheep). In words: direct ELISA, coated denatured rPrP 1 ng/assay.
For assay [10], the target named is Human recombinant PrP (human). The assay is described as follows: direct ELISA, coated denatured rPrP 1 ng/assay.
The target of assay [11] is Mouse recombinant PrP (mouse). In words: direct ELISA, coated denatured rPrP 1 ng/assay.
The target in assay [12] is Bovine recombinant PrP (bovine). In words: direct ELISA, coated denatured rPrP 1 ng/assay.
For assay [13], the target named is Syrian hamster PrP^C (normal SHa brain homogenate) (Syrian hamster). The assay is described as follows: sandwich ELISA, capture 3F4; normal SHa BH, PK 50 ug/mL, NaOH-denatured.
For assay [14] the target is unchanged. The assay is described as follows: sandwich ELISA, capture POM2; normal SHa BH, trypsin 25 ug/mL, GdnHCl-denatured.
Assay [15] has the same target. In words: sandwich ELISA, capture 3F4; normal SHa BH, trypsin 20 ug/mL, NaOH-denatured.
Assay [16] has the same target. In words: sandwich ELISA, capture 3F4; normal SHa BH, PK 10 ug/mL, NaOH-denatured.
For assay [17] the target is unchanged. In words: sandwich ELISA, capture 3F4; normal SHa BH, trypsin 50 ug/mL, NaOH-denatured.
Assay [18] has the same target. In words: sandwich ELISA, capture 3F4; normal SHa BH, PK 0 ug/mL, NaOH-denatured.
Assay [19] has as its target Syrian hamster PrP^Sc (scrapie-infected SHa brain homogenate) (Syrian hamster). In words: sandwich ELISA, capture 3F4; scrapie-infected SHa BH, PK 5 ug/mL, NaOH-denatured.
The target is the same in assay [20]. In words: sandwich ELISA, capture 3F4; scrapie-infected SHa BH, PK 0 ug/mL, NaOH-denatured.
The target in assay [21] is Syrian hamster PrP^C (normal SHa brain homogenate) (Syrian hamster). In words: sandwich ELISA, capture 3F4; normal SHa BH, PK 100 ug/mL, NaOH-denatured.
The target is the same in assay [22]. The assay is described as follows: sandwich ELISA, capture POM2; normal SHa BH, PK 25 ug/mL, GdnHCl-denatured.
For assay [23] the target is unchanged. In words: sandwich ELISA, capture 3F4; normal SHa BH, PK 5 ug/mL, NaOH-denatured.
The target is the same in assay [24]. In words: sandwich ELISA, capture 3F4; normal SHa BH, trypsin 25 ug/mL, GdnHCl-denatured.
Assay [25] has the same target. In words: sandwich ELISA, capture 3F4; normal SHa BH, PK 20 ug/mL, NaOH-denatured.
The target is the same in assay [26]. In words: sandwich ELISA, capture 3F4; normal SHa BH, trypsin 100 ug/mL, NaOH-denatured.
For assay [27] the target is unchanged. The assay is described as follows: sandwich ELISA, capture 3F4; normal SHa BH, trypsin 10 ug/mL, NaOH-denatured.
Assay [28] shares this target. The assay is described as follows: sandwich ELISA, capture 3F4; normal SHa BH, trypsin 5 ug/mL, NaOH-denatured.
Assay [29] deals with Syrian hamster PrP^Sc (scrapie-infected SHa brain homogenate) (Syrian hamster).
The target is the same in assay [30]. In words: sandwich ELISA, capture 3F4; infectious SHa BH, PK 25 ug/mL, GdnHCl-denatured.
Assay [31] addresses Syrian hamster PrP^C (normal SHa brain homogenate) (Syrian hamster). In words: sandwich ELISA, capture 3F4; normal SHa BH, PK 25 ug/mL, GdnHCl-denatured.
For assay [32] the target is unchanged. The assay is described as follows: sandwich ELISA, capture 3F4; normal SHa BH, trypsin 0 ug/mL, NaOH-denatured.
The target of assay [33] is Syrian hamster PrP^Sc (scrapie-infected SHa brain homogenate) (Syrian hamster). The assay is described as follows: sandwich ELISA, capture POM2; infectious SHa BH, PK 25 ug/mL, GdnHCl-denatured.
In assay [34] the target is Human PrP^C (normal human plasma; normal human brain homogenate) (human). The assay is described as follows: sandwich ELISA, capture SAF-32; normal human BH, trypsin 25 ug/mL, un-denatured.
Assay [35] addresses Human PrP^Sc of vCJD brain homogenate (vCJD MM, White strain) (human). The assay is described as follows: sandwich ELISA, capture SAF-32; vCJD human BH, PK 25 ug/mL, un-denatured.
For assay [36] the target is unchanged.
Assay [37] concerns the target Human PrP^C (normal human plasma; normal human brain homogenate) (human).
Assay [38] deals with Human PrP^Sc of vCJD brain homogenate (vCJD MM, White strain) (human). In words: sandwich ELISA, capture SAF-32; vCJD human BH, PK 25 ug/mL, 4M GdnHCl-denatured.
For assay [39] the target is unchanged. The assay is described as follows: sandwich ELISA, capture SAF-32; vCJD human BH, trypsin 25 ug/mL, un-denatured.
For assay [40], the target named is Human PrP^C (normal human plasma; normal human brain homogenate) (human). The assay is described as follows: sandwich ELISA, capture SAF-32; normal human BH, PK 25 ug/mL, un-denatured.

As for HuM D13 (antibody), the RLU in the assay with Mouse BH PrP^Sc (mouse) [1] was found to be 239 RLU; in [2] it was 232 RLU; in assay [3] it was 179 RLU; in [4], 89.5 RLU; in assay [5], 117 RLU; in assay [6], 75.1 RLU. Besides, the RLU with Mouse BH PrP^Sc (mouse) [7] stood at 664 RLU; in assay [8] it was 130 RLU; in assay [9] it was 161 RLU; in assay [10], 69.9 RLU; in [11] it was 294 RLU; in [12] it was 93.1 RLU.
For HuM D18 (antibody), the RLU in the assay with Mouse BH PrP^Sc (mouse) [1] was found to be 376 RLU; in assay [2], 134 RLU; in assay [3], 169 RLU; in [4], 77.5 RLU; in [5], 366 RLU; in [6], 109 RLU. Further, the RLU with Mouse BH PrP^Sc (mouse) [7] turned out to be 2230 RLU; in assay [8], 121 RLU; in assay [9] it was 186 RLU; in assay [10] it was 94.7 RLU; in assay [11], 1770 RLU; in [12], 132 RLU.
Mouse anti Prion (MAB5424) (antibody): the RLU with Mouse BH PrP^Sc (mouse) [1] is 167 RLU; in assay [2], 104 RLU; in [3], 214 RLU; in assay [4], 76.1 RLU; in [5], 90.1 RLU; in [6] it was 84.6 RLU. In addition, the RLU with Mouse BH PrP^Sc (mouse) [7] worked out at 601 RLU; in assay [8], 118 RLU; in [9], 899 RLU; in assay [10] it was 67.6 RLU; in assay [11] it was 605 RLU; in assay [12] it was 827 RLU.
As to Mouse anti Prion (SAF-32) (antibody), the RLU with Mouse BH PrP^Sc (mouse) [1] is 176 RLU; in assay [2], 457 RLU; in [3], 294 RLU; in assay [4], 285 RLU; in [5], 97.6 RLU; in [6], 450 RLU. Moreover, the RLU in the assay with Mouse BH PrP^Sc (mouse) [7] worked out at 551 RLU; in assay [8], 2320 RLU; in assay [9] it was 1440 RLU; in assay [10], 1570 RLU; in assay [11], 73.3 RLU; in assay [12] it was 2400 RLU.
As to Mouse anti Prion (SAF-53) (antibody), the RLU in the assay with Mouse BH PrP^Sc (mouse) [1] turned out to be 165 RLU; in [2], 144 RLU; in assay [3] it was 100 RLU; in assay [4], 85.2 RLU; in [5] it was 70.8 RLU; in assay [6], 76.6 RLU. Also, the RLU turned out to be 667 RLU with Mouse BH PrP^Sc (mouse) [7]; 263 RLU in assay [8]; 154 RLU in assay [9]; 93.5 RLU in [10]; 612 RLU in assay [11]; 145 RLU in assay [12].
Turning to Mouse anti Prion (SAF-61) (antibody), the RLU was 169 RLU with Mouse BH PrP^Sc (mouse) [1]; 150 RLU in [2]; 115 RLU in assay [3]; 90.4 RLU in [4]; 142 RLU in assay [5]; 67.6 RLU in assay [6]. Moreover, the RLU in the assay with Mouse BH PrP^Sc (mouse) [7] came out at 579 RLU; in [8], 190 RLU; in [9] it was 113 RLU; in [10], 101 RLU; in [11], 464 RLU; in assay [12], 136 RLU.
For the substance Mouse anti Prion (SAF-83) (antibody), the RLU with Mouse BH PrP^Sc (mouse) [1] was 274 RLU; in [2] it was 122 RLU; in [3] it was 98.1 RLU; in assay [4], 65.2 RLU; in [5] it was 181 RLU; in [6] it was 45.7 RLU. Also, the RLU with Mouse BH PrP^Sc (mouse) [7] is 1730 RLU; in assay [8], 125 RLU; in assay [9] it was 115 RLU; in assay [10] it was 67 RLU; in assay [11], 2230 RLU; in [12], 50.8 RLU.
For the substance POM17 antibody, the RLU in [13] amounted to 3.3 RLU; in assay [14] it was 14.6 RLU; in [15], 2.8 RLU; in assay [16], 7.2 RLU; in [17], 2 RLU; in [18], 1680 RLU. Moreover, the RLU in [19] worked out at 2480 RLU; in assay [20] it was 3860 RLU; in assay [21] it was 2.8 RLU; in assay [22] it was 1.8 RLU; in [23] it was 11.4 RLU; in assay [24] it was 2 RLU. The RLU in assay [25] was 5.5 RLU; in assay [26], 2.6 RLU; in [27], 4.5 RLU; in [28], 8.5 RLU; in assay [29], 254 RLU and 381 RLU; in assay [30], 200 RLU. The RLU in assay [31] came out at 1.7 RLU; in [32] it was 1660 RLU; in [33] it was 68.4 RLU.
mAb 6H4 (antibody): the RLU stood at 178 RLU with Mouse BH PrP^Sc (mouse) [1]; 92.4 RLU in assay [2]; 125 RLU in [3]; 72.7 RLU in assay [4]; 104 RLU in assay [5]; 89.1 RLU in [6]. Further, the RLU is 610 RLU with Mouse BH PrP^Sc (mouse) [7]; 222 RLU in assay [8]; 160 RLU in assay [9]; 192 RLU in assay [10]; 332 RLU in [11]; 691 RLU in [12].
In the case of mAb to prion 7D9 (antibody), the RLU with Mouse BH PrP^Sc (mouse) [1] was determined as 159 RLU; in [2] it was 121 RLU; in [3], 230 RLU; in assay [4], 81.4 RLU; in assay [5], 118 RLU; in [6] it was 149 RLU. The RLU is 614 RLU with Mouse BH PrP^Sc (mouse) [7]; 117 RLU in assay [8]; 993 RLU in [9]; 66.1 RLU in [10]; 769 RLU in assay [11]; 961 RLU in assay [12].
Consider mAb to prion BDI115 (antibody), for which the RLU was 119 RLU with Mouse BH PrP^Sc (mouse) [1]; 105 RLU in assay [2]; 108 RLU in assay [3]; 48 RLU in [4]; 54.7 RLU in assay [5]; 59.1 RLU in assay [6]. Further, the RLU in the assay with Mouse BH PrP^Sc (mouse) [7] came to 116 RLU; in assay [8] it was 160 RLU; in assay [9], 104 RLU; in assay [10] it was 74.3 RLU; in assay [11] it was 86.7 RLU; in [12] it was 177 RLU.
Take monoclonal antibody 3F4: the RLU in assay [34] was 6.1 RLU; in [35] it was 10 RLU; in assay [36], 1650 RLU; in assay [37] it was 50.4 RLU and 18.1 RLU; in assay [38] it was 226 RLU; in [39], 15.1 RLU. In addition, in [40], the RLU stood at 7.7 RLU.
